Measured values published in PMC7973133, “Escherichia coli FabG 3-ketoacyl-ACP reductase proteins lacking the assigned catalytic triad residues are active enzymes” (The Journal of Biological Chemistry, 2021).

Legend:
[1] = molecular target: T1, E. coli FabG (3-ketoacyl-ACP reductase) (Escherichia coli, UniProt P0AEK2); assay: fluorescence titration; assay type: binding
T1 construct: homotetramer
T1 sequence (P0AEK2 1-244): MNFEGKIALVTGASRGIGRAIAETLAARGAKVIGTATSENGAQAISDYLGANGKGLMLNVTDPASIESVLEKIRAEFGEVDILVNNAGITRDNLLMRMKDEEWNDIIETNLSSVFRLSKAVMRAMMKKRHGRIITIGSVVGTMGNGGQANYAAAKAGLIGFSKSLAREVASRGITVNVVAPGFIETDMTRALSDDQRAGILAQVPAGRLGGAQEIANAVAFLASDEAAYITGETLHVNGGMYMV
Source text: (§1) fluorescence titration on E. coli FabG (3-ketoacyl-ACP reductase) | wildtype FabG and mutant proteins S138A and Y151F could bind NADPH with Kd values

[2] = molecular target: T2, E. coli FabG (3-ketoacyl-ACP reductase) (Escherichia coli, UniProt P0AEK2, S138A); assay: fluorescence titration; assay type: binding
T2 construct: homotetramer
Source text: as §1

[3] = molecular target: T3, E. coli FabG (3-ketoacyl-ACP reductase) (Escherichia coli, UniProt P0AEK2, Y151F); assay: fluorescence titration; assay type: binding
T3 construct: homotetramer
Source text: as §1

[4] = substrate: NC(=O)C1=CN([C@@H]2O[C@H](COP(=O)(O)OP(=O)(O)OC[C@H]3O[C@@H](n4cnc5c(N)ncnc54)[C@H](OP(=O)(O)O)[C@@H]3O)[C@@H](O)[C@H]2O)C=CC1; assay: purified protein; assay type: biochemical, Escherichia coli; conditions: acetoacetyl-ACP generated in situ (100 μM ACP, 500 μM malonyl-CoA, 500 μM acetyl-CoA, FabD, FabH), 0.1 M sodium phosphate pH 7.0, varied: cofactor

Molecule: NC(=O)C1=CN([C@@H]2O[C@H](COP(=O)(O)OP(=O)(O)OC[C@H]3O[C@@H](n4cnc5c(N)ncnc54)[C@H](OP(=O)(O)O)[C@@H]3O)[C@@H](O)[C@H]2O)C=CC1 [NADPH]
- Kd [1]: 13.2 µM
- Kd [2]: 13.9 µM
- Kd [3]: 15.8 µM

B1: E. coli FabG (3-ketoacyl-ACP reductase) (Escherichia coli K-12) (protein)
chain: MNFEGKIALVTGASRGIGRAIAETLAARGAKVIGTATSENGAQAISDYLGANGKGLMLNVTDPASIESVLEKIRAEFGEVDILVNNAGITRDNLLMRMKDEEWNDIIETNLSSVFRLSKAVMRAMMKKRHGRIITIGSVVGTMGNGGQANYAAAKAGLIGFSKSLAREVASRGITVNVVAPGFIETDMTRALSDDQRAGILAQVPAGRLGGAQEIANAVAFLASDEAAYITGETLHVNGGMYMV
notes: homotetramer
- Km [4]: 99.22 µM

B2: E. coli FabG (3-ketoacyl-ACP reductase) (Escherichia coli K-12; Y151F) (protein)
chain: MNFEGKIALVTGASRGIGRAIAETLAARGAKVIGTATSENGAQAISDYLGANGKGLMLNVTDPASIESVLEKIRAEFGEVDILVNNAGITRDNLLMRMKDEEWNDIIETNLSSVFRLSKAVMRAMMKKRHGRIITIGSVVGTMGNGGQANFAAAKAGLIGFSKSLAREVASRGITVNVVAPGFIETDMTRALSDDQRAGILAQVPAGRLGGAQEIANAVAFLASDEAAYITGETLHVNGGMYMV
notes: homotetramer
- Km [4]: 147.72 µM

B3: E. coli FabG (3-ketoacyl-ACP reductase) (Escherichia coli K-12; K155A) (protein)
chain: MNFEGKIALVTGASRGIGRAIAETLAARGAKVIGTATSENGAQAISDYLGANGKGLMLNVTDPASIESVLEKIRAEFGEVDILVNNAGITRDNLLMRMKDEEWNDIIETNLSSVFRLSKAVMRAMMKKRHGRIITIGSVVGTMGNGGQANYAAAAAGLIGFSKSLAREVASRGITVNVVAPGFIETDMTRALSDDQRAGILAQVPAGRLGGAQEIANAVAFLASDEAAYITGETLHVNGGMYMV
notes: homotetramer
- Km [4]: 166.45 µM

B4: E. coli FabG (3-ketoacyl-ACP reductase) (Escherichia coli K-12; S138A) (protein)
chain: MNFEGKIALVTGASRGIGRAIAETLAARGAKVIGTATSENGAQAISDYLGANGKGLMLNVTDPASIESVLEKIRAEFGEVDILVNNAGITRDNLLMRMKDEEWNDIIETNLSSVFRLSKAVMRAMMKKRHGRIITIGAVVGTMGNGGQANYAAAKAGLIGFSKSLAREVASRGITVNVVAPGFIETDMTRALSDDQRAGILAQVPAGRLGGAQEIANAVAFLASDEAAYITGETLHVNGGMYMV
notes: homotetramer
- Km [4]: 101.47 µM
